Here are results for one protein from PMC9820451, “Coprinopsis cinerea Galectin CGL1 Induces Apoptosis and Inhibits Tumor Growth in Colorectal Cancer Cells” (International Journal of Molecular Sciences, 2022).

The data set concerns the molecule itself. As to the kind of experiment: dynamic light scattering; dilutions of the purified galectin filtered through 0.22 µm membranes, Zetasizer Nano-S; molecular weight estimated from the hydrodynamic radius; self-association, tetramer.

B1: Coprinopsis cinerea galectin CGL1 (natural protein)
chain: MLYHLFVNNQIKLQDDFKAEAVATIRSSVFNSKGGTTVFNFLSAGENILLHISIRPGENAIVFNSRTKGGAWGPEERVPYAGKFKGPNPSITVLDHGDRFQILFDNATAIYYTKRIKENAAAIAYSAENSLFSSPVTVDIHGLLPPLPPA
notes: galectin CGL1 of Coprinopsis cinerea, full-length cgl1 amplified from genomic DNA of strain Okayama 7 (#130; ATCC MYA-4618), cloned into pET22b(+); No removal of the tag is told
In the case of B1, the “stoichiometry N” value is 4.
